One assay concerns the target ephrin-B2 (Homo sapiens) (UniProt P52799). The conditions noted are these: cited from earlier work.
The next assay addresses ephrin-A4 (Homo sapiens) (UniProt P52798). Particulars: cited from earlier work.
The target in another assay is ephrin-A5 (Homo sapiens) (UniProt P52803). The conditions noted are these: cited from earlier work.
Assay [1] has as its target V5-EphA2 (pcDNA3.2-V5-EphA2) (UniProt P29317). In words: co-immunoprecipitation with densitometric quantification. Particulars: n = 3; parent: est. 1.0; read off a plot.
Assay [2] addresses T1, fc-fusion protein of the EphA2 extracellular domain (UniProt P29317 24-537).
T1 construct: EphA2 extracellular domain; Detected in the ELISA with biotinylated 1F7 mAb; also called EphA2 Fc
In words: ELISA; plates coated with ephrin-A5 Fc or ephrin-B2 Fc (3 μg/ml, 50 mM carbonate buffer pH 9.5, overnight at 4 °C); diluted EphA2 Fc analyte 1 h at room temperature; detection with biotinylated 1F7 mAb and UltraStreptavidin-HRP, OD492 nm (the results say that the EphA2 Fc was immobilised). Particulars: both partners purified. In general terms: An ELISA detects its analyte on a solid surface through an enzyme-linked reagent.

T1 sequence (P29317 24-537): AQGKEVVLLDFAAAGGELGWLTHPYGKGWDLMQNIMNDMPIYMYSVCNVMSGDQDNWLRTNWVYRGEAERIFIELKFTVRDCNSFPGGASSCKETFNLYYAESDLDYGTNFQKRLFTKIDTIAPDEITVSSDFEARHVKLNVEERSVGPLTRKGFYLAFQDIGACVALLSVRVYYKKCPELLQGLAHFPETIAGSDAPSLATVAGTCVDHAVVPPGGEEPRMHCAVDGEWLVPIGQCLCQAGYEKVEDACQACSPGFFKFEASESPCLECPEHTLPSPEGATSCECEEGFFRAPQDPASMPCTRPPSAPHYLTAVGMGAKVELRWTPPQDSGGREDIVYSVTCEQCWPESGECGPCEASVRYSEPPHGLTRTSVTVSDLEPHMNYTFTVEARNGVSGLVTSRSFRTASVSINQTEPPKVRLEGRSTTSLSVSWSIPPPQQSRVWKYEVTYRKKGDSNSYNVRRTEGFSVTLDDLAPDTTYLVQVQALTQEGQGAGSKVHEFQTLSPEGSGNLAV
ephrin-A4 (Homo sapiens), sequence (P52798 26-170): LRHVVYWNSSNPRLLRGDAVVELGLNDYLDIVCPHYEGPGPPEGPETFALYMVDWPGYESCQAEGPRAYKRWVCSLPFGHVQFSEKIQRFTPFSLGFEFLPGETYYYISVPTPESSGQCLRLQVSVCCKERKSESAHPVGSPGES
V5-EphA2 (pcDNA3.2-V5-EphA2), sequence (P29317 24-976): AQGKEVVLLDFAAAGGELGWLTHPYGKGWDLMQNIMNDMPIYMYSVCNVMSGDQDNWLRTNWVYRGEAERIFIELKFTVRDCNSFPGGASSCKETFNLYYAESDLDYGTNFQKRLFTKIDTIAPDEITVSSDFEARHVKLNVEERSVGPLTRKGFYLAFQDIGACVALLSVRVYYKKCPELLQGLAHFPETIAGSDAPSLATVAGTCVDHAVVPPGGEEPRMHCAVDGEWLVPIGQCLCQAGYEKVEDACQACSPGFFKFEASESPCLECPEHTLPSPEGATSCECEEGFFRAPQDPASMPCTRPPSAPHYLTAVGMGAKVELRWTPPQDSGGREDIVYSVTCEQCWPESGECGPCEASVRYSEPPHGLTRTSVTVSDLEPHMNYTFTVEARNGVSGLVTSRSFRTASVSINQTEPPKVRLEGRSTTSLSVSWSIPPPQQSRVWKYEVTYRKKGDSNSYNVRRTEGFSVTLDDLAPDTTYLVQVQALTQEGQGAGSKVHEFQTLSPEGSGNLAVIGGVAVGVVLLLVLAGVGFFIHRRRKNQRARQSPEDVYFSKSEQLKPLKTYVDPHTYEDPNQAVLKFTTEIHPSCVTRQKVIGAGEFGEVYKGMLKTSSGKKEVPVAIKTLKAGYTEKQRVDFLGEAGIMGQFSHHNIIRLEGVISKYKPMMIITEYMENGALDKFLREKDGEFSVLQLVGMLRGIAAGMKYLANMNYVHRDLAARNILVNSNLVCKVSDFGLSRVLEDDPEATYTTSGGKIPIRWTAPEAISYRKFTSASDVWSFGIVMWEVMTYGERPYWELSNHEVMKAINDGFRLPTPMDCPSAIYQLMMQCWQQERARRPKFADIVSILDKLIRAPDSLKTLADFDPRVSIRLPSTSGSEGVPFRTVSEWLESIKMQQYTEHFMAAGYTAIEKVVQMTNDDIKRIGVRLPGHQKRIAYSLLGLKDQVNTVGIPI

One may read the Kd as the free concentration of one partner at which half of the binding sites on the other are occupied at equilibrium, for simple one-to-one binding. As for EphA4 (from UniProt P54764), the results for the Kd with ephrin-B2 (Homo sapiens), with ephrin-A4 (Homo sapiens) and with ephrin-A5 (Homo sapiens) were 10800 nM, 36 nM and 360 nM, respectively.
Consider “myc-tagged pendrin (pCMV-Myc-pendrin) (from UniProt O43511) F355L”, for which the ratio to parent in assay [1] worked out at 0.98.

B1: soluble ephrin-B2 extracellular domain-Fc fusion protein (Fc fusion, UniProt P52799 28-229, looked up)
chain: IVLEPIYWNSSNSKFLPGQGLVLYPQIGDKLDIICPKVDSKTVGQYEYYKVYMVDKDQADRCTIKKENTPLLNCAKPDQDIKFTIKFQEFSPNLWGLEFQKNKDYYIISTSNGSLEGLDNQEGGVCQTRAMKILMKVGQDASSAGSTRNKDPTRRPELEAGTNGRSSTTSPFVKPNPGSSTDGNSAGHSGNNILGSEVALFA
notes: ephrin-B2 extracellular domain; also called ephrin-B2-Fc; ephrin-B2 Fc chimera protein
In assay [2], B1 showed a Kd of 85 nM.

B2: ephrin-A5 Fc fusion protein (Fc fusion, UniProt P52803 21-203, looked up)
chain: QDPGSKAVADRYAVYWNSSNPRFQRGDYHIDVCINDYLDVFCPHYEDSVPEDKTERYVLYMVNFDGYSACDHTSKGFKRWECNRPHSPNGPLKFSEKFQLFTPFSLGFEFRPGREYFYISSAIPDNGRRSCLKLKVFVRPTNSCMKTIGVHDRVFDVNDKVENSLEPADDTVHESAEPSRGEN
notes: ephrin-A5
Molecule B2 returned a Kd in assay [2] of 2 nM.

(Values after publication PMC7067772, “Digenic inheritance of mutations in EPHA2 and SLC26A4 in Pendred syndrome” (Nature Communications, 2020).)
